Columns and labels:
Experiment in all cases: cell-based or functional assay
KDR (h) (human) = KDR (h) (human) (UniProt P35968)
PDGFRα (h) (human) = PDGFRα (h) (human) (UniProt P16234)
Aurora-A (h) (human) = target: T1, Aurora-A (h) (human) (UniProt O14965)
T1 sequence (looked up): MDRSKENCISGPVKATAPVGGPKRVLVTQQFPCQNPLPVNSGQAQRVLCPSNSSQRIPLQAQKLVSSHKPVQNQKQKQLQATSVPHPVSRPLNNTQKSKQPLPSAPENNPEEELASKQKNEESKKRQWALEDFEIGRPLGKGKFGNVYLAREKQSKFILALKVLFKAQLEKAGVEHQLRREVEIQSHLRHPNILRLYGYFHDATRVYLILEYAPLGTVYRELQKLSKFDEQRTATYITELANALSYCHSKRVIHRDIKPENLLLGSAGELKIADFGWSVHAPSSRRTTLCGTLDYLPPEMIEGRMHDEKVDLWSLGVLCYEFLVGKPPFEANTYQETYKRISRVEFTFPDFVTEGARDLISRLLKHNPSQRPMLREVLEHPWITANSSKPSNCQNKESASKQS

CK1γ3 (h) (human) = CK1γ3 (h) (human) (UniProt Q9Y6M4)
NEK11 (h) (human) = target: T2, NEK11 (h) (human) (UniProt Q8NG66)
T2 sequence (looked up): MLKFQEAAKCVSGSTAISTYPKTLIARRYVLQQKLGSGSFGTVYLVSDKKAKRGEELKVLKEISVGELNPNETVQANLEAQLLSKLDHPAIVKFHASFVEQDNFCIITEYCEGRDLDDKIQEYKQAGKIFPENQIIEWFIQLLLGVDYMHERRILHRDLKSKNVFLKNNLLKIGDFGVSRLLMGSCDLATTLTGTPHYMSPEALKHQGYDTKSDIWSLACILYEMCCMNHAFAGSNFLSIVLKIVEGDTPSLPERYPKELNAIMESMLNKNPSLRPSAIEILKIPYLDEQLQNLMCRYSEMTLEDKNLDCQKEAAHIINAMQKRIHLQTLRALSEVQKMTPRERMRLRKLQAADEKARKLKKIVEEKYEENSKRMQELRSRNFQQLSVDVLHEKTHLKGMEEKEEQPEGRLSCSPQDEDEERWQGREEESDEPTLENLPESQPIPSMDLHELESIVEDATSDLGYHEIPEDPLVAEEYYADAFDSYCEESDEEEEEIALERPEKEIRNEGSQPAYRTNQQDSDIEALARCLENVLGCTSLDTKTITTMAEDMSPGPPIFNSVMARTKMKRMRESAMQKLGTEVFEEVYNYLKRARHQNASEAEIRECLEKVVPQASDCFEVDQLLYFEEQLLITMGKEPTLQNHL

PKCθ (h) (human) = PKCθ (h) (human) (UniProt Q04759)
eEF-2K (h) (human) = target: T3, eEF-2K (h) (human) (UniProt O00418)
T3 sequence (looked up): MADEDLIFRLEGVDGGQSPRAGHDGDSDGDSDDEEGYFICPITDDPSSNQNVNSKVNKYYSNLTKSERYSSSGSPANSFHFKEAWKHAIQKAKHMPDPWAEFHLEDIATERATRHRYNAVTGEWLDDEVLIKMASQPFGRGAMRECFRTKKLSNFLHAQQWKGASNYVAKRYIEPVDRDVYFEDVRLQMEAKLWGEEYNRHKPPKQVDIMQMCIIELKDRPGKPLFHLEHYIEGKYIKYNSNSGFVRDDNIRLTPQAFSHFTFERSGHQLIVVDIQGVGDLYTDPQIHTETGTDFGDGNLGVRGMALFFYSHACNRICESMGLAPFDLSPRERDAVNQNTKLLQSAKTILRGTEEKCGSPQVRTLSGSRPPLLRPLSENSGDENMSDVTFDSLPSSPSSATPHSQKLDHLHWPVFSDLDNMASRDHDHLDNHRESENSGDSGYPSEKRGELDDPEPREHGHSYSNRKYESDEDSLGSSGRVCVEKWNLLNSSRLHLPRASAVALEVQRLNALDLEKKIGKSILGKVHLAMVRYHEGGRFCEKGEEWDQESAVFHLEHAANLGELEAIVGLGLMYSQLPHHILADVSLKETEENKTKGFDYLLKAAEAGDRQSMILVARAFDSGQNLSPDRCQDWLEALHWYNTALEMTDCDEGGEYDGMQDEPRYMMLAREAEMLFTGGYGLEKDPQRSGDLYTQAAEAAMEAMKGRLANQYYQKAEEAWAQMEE

Aurora-B (h) (human) = Aurora-B (h) (human) (UniProt Q96GD4)
Sequence of Aurora-B (h) (human) (Q96GD4 whole entry): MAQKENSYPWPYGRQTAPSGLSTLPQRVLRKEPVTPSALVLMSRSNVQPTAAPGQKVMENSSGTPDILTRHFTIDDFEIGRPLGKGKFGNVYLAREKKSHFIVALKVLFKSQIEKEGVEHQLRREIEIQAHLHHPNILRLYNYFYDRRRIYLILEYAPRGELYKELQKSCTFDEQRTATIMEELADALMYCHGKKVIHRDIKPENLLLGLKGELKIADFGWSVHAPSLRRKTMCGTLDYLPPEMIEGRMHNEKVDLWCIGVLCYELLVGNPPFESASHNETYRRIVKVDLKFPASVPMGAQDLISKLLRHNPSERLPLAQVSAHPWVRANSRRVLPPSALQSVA

NEK7 (h) (human) = NEK7 (h) (human) (UniProt Q8TDX7)
EphA7 (h) (human) = EphA7 (h) (human) (UniProt Q15375)
EphA5 (h) (human) = target: T4, EphA5 (h) (human) (UniProt P54756)
T4 sequence (looked up): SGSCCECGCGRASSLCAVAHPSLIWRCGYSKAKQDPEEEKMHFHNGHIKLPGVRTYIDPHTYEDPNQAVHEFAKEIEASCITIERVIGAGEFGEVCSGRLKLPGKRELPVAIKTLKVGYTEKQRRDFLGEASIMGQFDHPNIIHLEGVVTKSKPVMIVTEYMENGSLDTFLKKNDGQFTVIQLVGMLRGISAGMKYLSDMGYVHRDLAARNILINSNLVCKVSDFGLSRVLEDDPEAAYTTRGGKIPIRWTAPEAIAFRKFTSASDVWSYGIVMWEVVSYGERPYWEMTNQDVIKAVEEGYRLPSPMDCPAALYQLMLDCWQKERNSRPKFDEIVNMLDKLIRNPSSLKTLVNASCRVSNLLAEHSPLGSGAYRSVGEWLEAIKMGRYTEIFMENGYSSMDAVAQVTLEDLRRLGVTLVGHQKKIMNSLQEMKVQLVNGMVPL

EphA2 (h) (human) = EphA2 (h) (human) (UniProt P29317)
Sequence of EphA2 (h) (human) (P29317 559-976 limits assumed): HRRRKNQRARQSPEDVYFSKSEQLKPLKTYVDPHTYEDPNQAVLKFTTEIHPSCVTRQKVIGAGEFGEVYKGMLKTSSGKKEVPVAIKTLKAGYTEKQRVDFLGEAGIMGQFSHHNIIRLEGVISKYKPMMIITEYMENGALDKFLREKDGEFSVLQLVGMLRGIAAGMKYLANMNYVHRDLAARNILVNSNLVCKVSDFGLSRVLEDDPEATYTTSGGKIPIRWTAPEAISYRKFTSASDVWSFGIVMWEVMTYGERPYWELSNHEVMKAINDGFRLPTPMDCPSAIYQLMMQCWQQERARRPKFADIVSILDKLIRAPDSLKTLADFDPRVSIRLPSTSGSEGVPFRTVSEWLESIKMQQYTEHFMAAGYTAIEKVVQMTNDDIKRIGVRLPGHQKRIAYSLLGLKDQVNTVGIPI

CSK (h) (human) = CSK (h) (human) (UniProt P41240)

Sequence of PDGFRα (h) (human) (P16234 550-1089 limits assumed): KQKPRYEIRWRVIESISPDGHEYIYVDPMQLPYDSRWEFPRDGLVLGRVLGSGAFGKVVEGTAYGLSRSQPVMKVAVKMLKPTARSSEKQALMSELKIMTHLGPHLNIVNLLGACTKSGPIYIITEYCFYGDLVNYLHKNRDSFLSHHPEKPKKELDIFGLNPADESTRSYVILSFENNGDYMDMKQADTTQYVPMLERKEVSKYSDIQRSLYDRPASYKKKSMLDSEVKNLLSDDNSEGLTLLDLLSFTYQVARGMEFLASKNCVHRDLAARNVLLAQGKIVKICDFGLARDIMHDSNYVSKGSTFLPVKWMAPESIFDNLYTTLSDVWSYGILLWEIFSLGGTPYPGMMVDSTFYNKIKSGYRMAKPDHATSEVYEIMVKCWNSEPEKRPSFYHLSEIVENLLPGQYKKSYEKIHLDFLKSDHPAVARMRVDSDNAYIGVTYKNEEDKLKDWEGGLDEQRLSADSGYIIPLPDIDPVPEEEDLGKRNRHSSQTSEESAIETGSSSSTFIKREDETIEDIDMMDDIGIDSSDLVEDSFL

% activity at 100 µM (KDR (h) (human)): 101% | % activity at 100 µM (PDGFRα (h) (human)): 65% | % activity at 100 µM (Aurora-A (h) (human)): 92% | % activity at 100 µM (CK1γ3 (h) (human)): 125% | % activity at 100 µM (NEK11 (h) (human)): 53% | % activity at 100 µM (PKCθ (h) (human)): 88% | % activity at 100 µM (eEF-2K (h) (human)): 91% | % activity at 100 µM (Aurora-B (h) (human)): 128% | % activity at 100 µM (NEK7 (h) (human)): 84% | % activity at 100 µM (EphA7 (h) (human)): 159% | % activity at 100 µM (EphA5 (h) (human)): 18% | % activity at 100 µM (EphA2 (h) (human)): 31% | % activity at 100 µM (CSK (h) (human)): 49%
Substance: MMI-0300 (peptide)
